The source of these data is the Immune Epitope Database (IEDB).

Test [1] concerns the target HLA-A*03:01. Put plainly: IEDB peptide-MHC binding, purified MHC/competitive/radioactivity; ≥ and ≤ were set here for values at or beyond the usual limits of such assays. The conditions noted are these: source organism: Human immunodeficiency virus type 1 (NDK ISOLATE).
Test [2] concerns the target HLA-A*24:02. Put plainly: IEDB peptide-MHC binding, purified MHC/competitive/radioactivity; filed as Kd, often an IC50 or EC50 that approximates it; ≥ and ≤ were set here for values at or beyond the usual limits of such assays.
The target of test [3] is HLA-A*01:01. The test is described as above.
For test [4], the target named is HLA-A*02:01. The test is described as above.
In test [5] the target is HLA-A*11:01. The test is described as above.
In test [6] the target is HLA-A*02:01. Put plainly: IEDB peptide-MHC binding, purified MHC/competitive/radioactivity; ≥ and ≤ were set here for values at or beyond the usual limits of such assays. As to conditions: source organism: Hepatitis B virus subtype adyw.
Test [7] addresses HLA-A*03:01. Put plainly: IEDB peptide-MHC binding, purified MHC/competitive/radioactivity; filed as Kd, often an IC50 or EC50 that approximates it; ≥ and ≤ were set here for values at or beyond the usual limits of such assays.
The mark [8] stands for this setting: source organism: Human immunodeficiency virus type 1 (NDK ISOLATE).
Where [9] appears, read: source organism: Hepatitis B virus subtype adyw.
Where [10] appears, read: source organism: Plasmodium falciparum.

As to AVDLSHFLK, in test [1], the IC50 was 0.149 µM. The Kd in test [2] (setting [8]), in test [3] (setting [8]) and in test [4] (setting [8]) was at least 5 µM in each case.
Consider EADPTGHSY, for which the Kd in test [2] (source organism: Homo sapiens) and in test [5] (source organism: Homo sapiens) was at least 5 µM each time.
Consider ELRSRYWAI, for which the Kd in test [2] (source organism: Influenza A virus (A/Puerto Rico/8/1934(H1N1))) is at least 5 µM.
As to FLPSDFFP, the Kd in test [4] (setting [9]) is at least 50 µM.
Take FLPSDFFPS: the IC50 in test [6] was found to be 0.117 µM.
Regarding FLPSDFFPSVR, in test [6], the IC50 was found to be 0.305 µM.
ILKEPVHGV: the Kd in test [2] (setting [8]), in test [3] (setting [8]), in test [5] (setting [8]) and in test [7] (setting [8]) was at least 5 µM throughout.
Consider KPIVQYDNF, for which the Kd in test [2] (setting [10]), in test [3] (setting [10]), in test [4] (setting [10]), in test [5] (setting [10]) and in test [7] (setting [10]) was at least 5 µM in each case.
For KRYEGLTQR, the Kd in test [2] (source organism: Homo sapiens), in test [3] (source organism: Homo sapiens), in test [4] (source organism: Homo sapiens), in test [5] (source organism: Homo sapiens) and in test [7] (source organism: Homo sapiens) was at least 5 µM in each case.
With LLGRNSFEV, the Kd in test [2] (source organism: Homo sapiens), in test [3] (source organism: Homo sapiens), in test [5] (source organism: Homo sapiens) and in test [7] (source organism: Homo sapiens) was at least 5 µM throughout.
With PSDFFPSV, in test [4] (setting [9]), the equilibrium dissociation constant (Kd) is at least 50 µM.
Regarding RRYQKSTEL, the Kd in test [2] (source organism: Homo sapiens), in test [3] (source organism: Homo sapiens), in test [4] (source organism: Homo sapiens), in test [5] (source organism: Homo sapiens) and in test [7] (source organism: Homo sapiens) was at least 5 µM throughout.
For SFLPSDFFPSV, the dissociation constant (Kd) in test [4] (setting [9]) was at least 50 µM.
Take WLSLLVPFV: in test [3] (setting [9]), the Kd was at least 5 µM.

Usually IC50 stands for the concentration needed to halve the response being measured. As a reminder, the Kd is the constant that tells how readily two partners part at equilibrium.
